Results published in the domain aggregation screens of Martell et al. (2025).

Assay: soluble fraction after stress (log2 fold change); higher = more stays soluble; pooled small domains, quantitative proteomics
Settings: stress: 75 degC
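Further: 20 min heating vs room temperature control held 20 min.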

Sequence | soluble fraction (log2)
HMDQHPYGEDSFRGDNPPAGFDIKGNEDSMKFHEPSSPWYGRTIAEVWFRSAAAAEAAGFVNAV | -0.0403
HMDQINNDLRKLIEFLPEDQKTVLKMRHFQEMSFKEIAKATGVSINTALGRMRYALINLRKLIEENEI | -2.06
HMDQPLIEPLSERELEVLSLIAAGYSNAEIAERLVIAVGTVKRHINNLYGKLGAGSRTQALAIAREIGLM | -0.107
HMDQTKYDAIITEAKKLTAEGQYKESEEKLATIPVSDLGKPHYSIVKETVEKLNNQNNEGLKRQEEVAVE | -0.0329
HMDQVLHQLVEVLRRSEIRISPAETLDAFKVLRNVGIDNKSLLREALALTLAKSIHEKIIFYETFDEFFT | -1.46
HMDRADIDAVDAEWVRATMERLGLRAKHIESHTGISKSTLSILLNGHRPLTRWHKIAFYYLFKHIEF | -2.76
HMDRDQNVEEGQRSLKSEMGRFGLLIANMDDLAERVNYGNAEDMYAAIGAGDLRLMQVVHAAEEMLG | 0.097
HMDRENNITAGREILEKELSRLALNMKMVNLQDYAARFNVKHSDDILAGIGAGDIRPAHIVNAIAEKLT | -0.0151
HMDREQLELYVGEVRVLQVGELRRIAIGNGKVLQASALDRGQLLLIPEAPGQSVLYLWTRDGTERHLSISV | 0.0104
HMDRESFIKLGRELARSAFAHVGQKSTEKALETAADVLRLKDPNEVLARLGSAELTGRQVVQAIYPELI | -0.277
HMDRFRYYITEDSVQRGTYPYVDETTLKRFTSQLHKYEQGMISAYGYLEYSKPLTAEQIKDYTLMPSP | -0.0579
HMDRFVLQLSKRYYDSSIEGVRKALAAFPVKTELLDQDRGGRPFYHENGKENEPVFRIMFHPEEGM | -0.421
HMDRIISTPMPGRVVKIPVTEGEPVAKGATVITISAMKMESEYKSPIDGIVKKIHVSEGDNINANQPLIEI | -0.51
HMDRKFFYEDQYQDYLGEELKVSFFDTDNKKTVRGTLSEVTPHGIKINLEQETQEIPFSSIIQANLI | 0.224
HMDRPARDEAQSWLADVLADGPVPTAEIREEAEAAGLAWRTIQRARIALSVEPIRGDGRNAWLWQLPG | -1.49
HMDRQIQITVAENEAGQRLDAFLAAKIPDMSRSYIQKLIEDGLILVNGQSTKGKVKTYSGMNIEVYMPE | -0.0484
HMDRRDEYHQHLLRLLLSGEIRDKDELQRRKVKLSGEYGLAGVPKNSETLALVPPDRLPEVLDILR | -0.214
HMDRSIGDIIAELRDLSAEQVERVLAHQRETGVRFGEAAVALGYASKEDVLFALSQQFHYPYAPEE | 0.0114
HMDRSVTAAELRLAAMDLLARREHGSQELEAKLSRRFHKRHYDVELLRSVIEQLTVEGLLSDERFAVS | -0.951
HMDRVTYPVSFNGKVRFQLELDAGMNAKEVETAALGHEKTAAQIEGKTIRKVIVVPGRIINIVV | -1.22
HMDRWTPLVVAVLSRGSHRFGELRAAIGGITPKVLTDTLRSMERDGLITRDQAPGVPPRVDYALTPLGS | -1.43
HMDSALKDDLNAFVKKLDVESQTLFMRRYFLGESVSSLASRFEMSEDNVGVKLFRIRAKLKKYLTGKGYD | -3.1
HMDSAMMDLVMRVQLALFTKGYDVGIIDGKIGPKTRAQIKRYQSDNRLSSTGTLTTSLLTSLGIQ | -3.16
HMDSATDRVALKELLNTLSARERTIITLRYFSDQTQTQVAKSLGISQVQVSRLENAILQRLRKL | -2.08
HMDSDELEAFRLITSVNGVGPKLGIAILSEFTAEKLTVFIASGDAKALTAASGVGIKLAQRIVLELKDKVG | -0.351
HMDSDFIKIEVLFNERNRLDLKAMMEASGFTDRGQFLSIMADLTGDENWDRNLDRGDIFYLPRSFTI | -1.28

Sequence | soluble fraction (log2)
HMDSDIGQQLKILLTVGTFMPSTELKAIAQQFGMKKPTDLKEWVELESDTQRIKGNPTKGYWINEINDL | -0.682
HMDSEEVYQMTKHKMDAAQISVAKRIHINLVLVKLLELHHLGYDLRHYHAQHHAFIKRLNLPEYFRFD | -1.67
HMDSEKVLTNLKEELVLQLSNIEPYGYVPSQYWYSKVQRVQSVQELGKYVDGDLEAFVMKYAEDWESQK | -0.115
HMDSGFMRTTQSYTVARLAEIFRLSGEDYLAVLREYDGWYQDLTSTKDLIRKGSDVPVPEGV | -1.67
HMDSGLEQAKTAALENAELETSQVTFIKAELDYDDGKKVYEIEFVTSAMKYEYQVKADDFSILEMSKETIE | -0.755
HMDSHSAESVRQRIKDMIAAEASKSILSDDTIVENLKSEGIEIARRTVAKYRESLNIPSSIQRRRIARSEA | -0.19
HMDSILMPGVVNKELREALAILKNEGIGWADPEYASSTVTRNYVISTDPVEGIELAPGQKVRLVVSLGPKP | -0.326
HMDSIQMKNNSILYYGNTAGYLDAKRNTAVVDPMFRTDEMESYLSEQKGLSVEWASGTYDRLT | 0.0501
HMDSLEIEEPITVKSLSAASGLKISDIIRKLMQEGIMATANQVIDREQAEAVLIDYNVDLVVKR | -0.281
HMDSLNWVEKIINTLPEQQRLIIQMRDIEQYEFAEIAKILEMNETAIRVALSRARKTIREFMIKTH | -2.07
HMDSLSLTELRIDSASPWIGNRISDFSPYAGELVIMIIRGEETIVPNGDTIILDKDLLVIYSS | -2.11
HMDSNFNYELVGFRLDDMGLNSSVIVKRNNQEFVIQKGDLLENKYLLNSVTKKNINFSYLGKNYQI | -1.07
HMDSNPLSEREQEVLQLVAKGASNQTIAEQLFLSNGTIRNYMTAIFNKLNANNRTDAVRIARENGW | -0.207
HMDSPVEEWANRGLAYDPSLVTETMAKLYAKQGQIGLARKAFKRLALIYPEKSVYFAFQLKKLSNN | -2.01
HMDSPVLTAEIKALIDKELEQNAVKLATGLKKQRKRATDIHDALIRQGHEVSYRTVVRYIRNKTAQTS | -0.751
HMDSTSEILKVIQNIVKKEDPYHPLSDDKISNLLNDLDYQISRRTVAKYRDILTIPSSSKRRKL | -0.256
HMDSVEMFSPILGMNANMDLDTLTQTRDKLLEKYKDDEQLIGLVNKTYDYFNEILLKQFLIEELEKNE | 0.0898
HMDSVFGVVTSSDGVKLRKEASTISKVLTVLPYGTEVDVDRIGSEWIRIVTDGGQKGYVSADYLAVREGER | 0.682
HMDSVPEEQLRQLALDKAKEVKRWGQPVELAKMNAHDRRIIHINLQDDPEIETRSEGEGALKSVIISLKK | 0.0979
HMDSYADVLSDYRGKYKTNTISGLKGLRDKIREDMLAAADSLDFEKAALLRDEMNDLNKKIELKEKT | ≥ 1.04
HMDTERLYAYAWQTHLKQFGLNISEEEIRQFVGVDDRIVHSFYAKTVPLDDFENTMFSLGEIIQQSL | -2.58
HMDTFNVIARQEIDGILYEYKIMTVEDYKNQSPENLAVIYENIKAVMEQYDLSEDDADAILVDLLG | -1.14
HMDTIRINSGSTVKEVAEYLGIPVPEVIKKLMSMGELATLTKTLSDDHIEVLAEEFEKKIKIVHVGEEAD | -0.458
HMDTITDSYTLEKGKLRAKVMEYELPESKKKEYSATFEYRGVYYHMIGIIEKADFEEILKNLHFP | -0.168
HMDTIVVAARSIQARQTLTESDLRVEEQEIGAASDKYYTDIAEAVGLVSSRRLSPGQPILRTM | -0.352
HMDTLKDFISGVSIVFENKYSVGDNVTIGDFRGDVIELGMKTTKIRAYTGEVLIIPNHLVEKVINH | -1.56

Sequence | soluble fraction (log2)
HMDTLRARQEAAYRFLSAIAGDWRNYEEANRALFAGDAARFQDLTESWPADVRDHARHLASAAFSS | -0.8
HMDTNAIIGLRIKNLRTEKKYTLKYLSENTGLSIGFLSQLERGMTSIAIDSLDKISKVLDVELSSFFT | -1.69
HMDTNELIDRYVNEVGQHLPRKTRADIEMELRSLLLDTLEEQSGGEPTPKMAAEVLREFGHPEEIAAQYH | -0.386
HMDTRKKLEQIFKLFDKTGTGMVNIDEFKSVLKLFMEEIDEKFGNYFIAYFDENGDGKIEFEEFADVVL | -0.444
HMDTSAHEVLSAIRSIIEDEDKRHPLSDEAITSRLSQQGYDIARRTVAKYRERLGLPVARLRRE | -0.26
HMDVALEALDESDGAVRLQFSGALQTYLNDSTTAASLEAISKTFRAFYEAAGRPVDTLEVYAAGEPVT | 0.105
HMDVDKQLDQLLAAMIPDKSLRQTIKTKAFNELVDNELADKDISSWTKQTMDVFMTRAEDMFGAM | -0.274
HMDVEMLIDKYQLNDSEAEVLRFMKKNRQSLKTIGIRDVAKATYVSTATIINMAKKIGYSGYSELVFALGN | -1.69
HMDVNAQAGYDKLQSNQLDGARHDYEQALKTDPNNVDTLLALAAIAQRQGRSADADGYRQRAIDAD | -0.378
HMDVNHVIIDHKGNSIQAIIDSIDLDNVYYQSKIKKESEVIDIDKVYFIFNDFDRVYHYDWSYYENL | -0.166
HMDVNLSIRSGETIGIIGSTGSAKSTLVQLIPRLYDTTEGEVLVGGVNVKNYDLEALRNSVAMVLQKN | -0.112
HMDVPNLVGEEIKDVRRTLRHFQLEVIGEGSKIVSQVPKHGQRLPENTTIRVYLN | -0.0339
HMDVPNLVGKTLEEAENELKKLNIRYNVTERADEAPKDTVIEQSPKPYEAMEPGTVVNLVISSGPA | ≥ 1.04
HMDVQPHIYLRKLDQFWPADLHSLILYTLDGRRLWSADSGNIPALPHRASSLVILEATWDNGQRTRRKQFL | -1.75
HMDVRKSISDLKALGLSDAAVTVYGTIGNKPVHIDKIVSELGIPVFKVLTALTQLEMKGLVTAMQGRMYVL | -2.13
HMDVSASEVGLTGRQTDVLSLMVKGRSNRDIAELLGLSEGTVKIHITAIFKALGVASRTQALVAAARLGLK | -0.82
HMDVSLVEQTQRDILEYISKNNSNAQLPKEQEFVGLLGVSRVVVREALSRLRALGIIETKRKKGTVVVVPE | -1.09
HMDWVAYGAELRRRRLLAGWSVAELSRRTNLSTSIIYQVEQARTRLRPSQLTLAKLAAALGMP | -3.1
HMDYAQAQRQAESAIALRPDVERLRLLLIYALQKQGKLREAEQAAADAIKSGLDTPALRQARANLRP | -0.732
HMDYGSISFINWSIEVLSVIKTRLDRGDKIIDEVSGEKYTASSFEKFVRKNFSSYIFSQVYAEDHKK | -2.73
HMDYHTIQTGDKGDEVLRLQQALAEYGYYEGDLDGRFGQQTRRAVERFQYSHGLTADGIAGRNTLSVLYD | -0.181
HMDYIITHYPDNKRFETQVDGVVAFVQYRLSGDKLDIIHTIVPPAIGGRGIAAALVKYAYDYAIENGMK | -2.13
HMDYKSKLQELVQTEKRTVEYKLVDESGPAHNKSFTFEVVISGIKYGSGTGASKKIAEQNAAKEALEKLA | -0.277
HMDYKSTLQELVQTVKKSVTYEVIDEEGPSHNKTFTSIVKIDGIVMGKGTAGSKKASEQEAARDALSKR | 0.42
HMDYLYHNGKEIDQGSIMYKMEDYSDGIFELQSAKYADGTELDEKELEELESTQELIDWVMIDFVS | 0.675
